The text below walks through data of paper PMC8654964, “Centrosome dysfunction associated with somatic expression of the synaptonemal complex protein TEX12” (Communications Biology, 2021).

As a reminder, the stoichiometry N is the number of molecules, sites or subunits per partner or assembly.

The series deals with the molecule itself. Briefly: SEC-MALS; Superdex 200 Increase 10/300 GL, 20 mM Tris pH 8.0, 150 mM KCl, 2 mM DTT, 0.5 ml/min; TEX12 loaded at 12 mg/ml, TEX12core at 4 mg/ml; self-association (homodimer). A general note: SEC sorts molecules by how far they enter the pores of the column.

B1: TEX12 (human, full length, amino acids 1-123) (natural protein, UniProt Q9BXU0 1-123, looked up)
chain: MMANHLVKPDNRNCKRPRELESPVPDSPQLSSLGKSDSSFSEISGLFYKDEALEKDLNDVSKEINLMLSTYAKLLSERAAVDASYIDEIDELFKEANAIENFLIQKREFLRQRFTVIANTLHR
notes: Human TEX12, synaptonemal complex central element protein, amino acids 1-123 (full length); Cloned into pMAT11 as a His6-MBP fusion with a TEV site; also called recombinant human TEX12; source: E. coli BL21(DE3), purified (Ni-NTA, amylose, TEV cleavage, anion exchange); not shown: His6, N-terminal, cleaved; MBP, N-terminal, cleaved
For the protein B1, the “stoichiometry N” value is 2.

B2: TEX12core (human TEX12 amino acids 49-123) (domain or fragment, UniProt Q9BXU0 49-123, looked up)
chain: KDEALEKDLNDVSKEINLMLSTYAKLLSERAAVDASYIDEIDELFKEANAIENFLIQKREFLRQRFTVIANTLHR
notes: Human TEX12, alpha-helical structural core, amino acids 49-123; Cloned into pMAT11 as a His6-MBP fusion with a TEV site; also called structural core (49-123); source: E. coli BL21(DE3), purified (Ni-NTA, amylose, TEV cleavage, anion exchange); not shown: His6, N-terminal, cleaved; MBP, N-terminal, cleaved
Regarding B2, the “stoichiometry N” value amounted to 2.
